From article PMC3538841

How the values were obtained:
Assay in all cases: negative stain EM reconstruction
[1] = target: A/Hong Kong/1/1968 (H3N2) HA (influenza A virus A/Hong Kong/1/1968 (H3N2)) (UniProt Q91MA7)
[2] = target: A/Netherlands/219/2003 (H7N7) HA (influenza A virus A/Netherlands/219/2003 (H7N7)) (UniProt Q6VMK1)
[3] = target: A/South Carolina/1/1918 (H1N1) HA (influenza A virus A/South Carolina/1/1918 (H1N1)) (UniProt Q9WFX3)
[4] = target: Wisc66/H9 HA (influenza A virus, Wisc66 (H9))

Measured: stoichiometry N (Fabs per HA trimer)

Fab CR9114
3: all assays above
